The chains are these.
B1: mNb‐WT [not stated] / recombinant VEGF‐A165 protein [not stated] (parent complex)
chain 1: MDVQLVESGGGLVQPGGSLRLSCAASGRTFSSYSMGWFRQAPGKEREFVVAISKGGYKYDAVSLEGRFTISRDNAKNTVYLQINSLRPEDTAVYYCASSRAYGSSRLRLADTYEYWGQGTLVTVSS
chain 2: APMAEGGGQNHHEVVKFMDVYQRSYCHPIETLVDIFQEYPDEIEYIFKPSCVPLMRCGGCCNDEGLECVPTEESNITMQIMRIKPHQGQHIGEMSFLQHNKCECRPKKDRARQENPCGPCSERRKHLFVQDPQTCKCSCKNTDSRCKARQLELNERTCRCDKPRR

Consider seven variants from paper PMC10658565, “Polymorphic nanobody crystals as long‐acting intravitreal therapy for wet age‐related macular degeneration” (Bioengineering & Translational Medicine, 2023).

In general, EC50 refers to the concentration giving half of the maximal effect.

This experiment covers variants of B1. The experiment in a line: ELISA; parent: 0.73 nM.
In the case of chain 1 MDVQLVESGGGLVQPGGSLRLSCAASGRTFSSYSMGWFRQAPGAAREFVVAISKGGYKYDAVSLEGRFTISRDNAKNTVYLQINSLRPEDTAVYYCASSRAYGSSRLRLADTYEYWGQGTLVTVSS, the EC50 is 0.91 nM. Turning to chain 1 MDVQLVESGGGLVQPGGSLRLSCAASGRTFSSYSMGWFRQAPGKEREFVVAISKGGYKYDAVSLEGRFTISRDNAKNTVYLQINSLRPEDTAVYYCASSRAYGSSRLRLADTYEYWGNGTLVTVSS, the concentration giving a half-maximal response (EC50) came to 0.77 nM.

As to chain 1 MDVQLVEAGGGLVQPGGSLRLSCAASGRTFSSYSMGWFRQAPGKEREFVVAISKGGYKYDAVSLEGRFTISRDNAKNTVYLQINSLRPEDTAVYYCASSRAYGSSRLRLADTYEYWGQGTLVTVSS, the concentration for a half-maximal effect (EC50) amounted to 0.82 nM. The same measure for chain 1 MDVQLVESGGGLVQPGGSLRLSCAASGRTFSSYSMGWFRQAPGAEREFVVAISKGGYKYDAVSLEGRFTISRDNAKNTVYLQINSLRPEDTAVYYCASSRAYGSSRLRLADTYEYWGQGTLVTVSS: 0.62 nM; for chain 1 MDVQLVESGGGLVNPGGSLRLSCAASGRTFSSYSMGWFRQAPGKEREFVVAISKGGYKYDAVSLEGRFTISRDNAKNTVYLQINSLRPEDTAVYYCASSRAYGSSRLRLADTYEYWGQGTLVTVSS: 0.77 nM; for chain 1 MDVQLVESGGGLVQPGGSLRLSCAASGRTFSSYSMGWFRQAPGKEREFVVAISKGGYKYDAVSLEGRFTISRDNAKNTVYLQINSLRPEDTAVYFCASSRAYGSSRLRLADTYEYWGQGTLVTVSS: 0.8 nM. In the case of chain 1 MDVQLVESGGGLVQPGGSLRLSCAASGRTFSSYSMGWFRQAPGKAREFVVAISKGGYKYDAVSLEGRFTISRDNAKNTVYLQINSLRPEDTAVYYCASSRAYGSSRLRLADTYEYWGQGTLVTVSS it was 0.79 nM.
